# Source: patent US20030092066A1, “Purified Stat proteins and methods of purifying thereof” (published 2003)
# B1: amino terminal domain of Stat1 (amino terminal 131 amino acids) (other)
# chain: MSQWYELQQLDSKFLEQVHQLYDDSFPMEIRQYLAQWLEKQDWEHAANDVSFATIRFHDLLSQLDDQYSRFSLENNFLLQHNIRKSKRNLQDNFQEDPIQMSMIIYSCLKEERKILENAQRFNQAQSGNIQ
# notes: also called 16 kDa fragment; N-terminal fragment
# B2: 2xcfosWT tandem, 10 bp spacing (dsDNA)
# DNA 1: AGTCAGTTCCCGTCAATGCATCAGGTTCCCGTCAATGCAT
# DNA 2: ATGCATTGACGGGAACCTGATGCATTGACGGGAACTGACT
# How the values were obtained:
# [1] = molecular target: tyrosine-phosphorylated Stat1tc, truncated Stat1 (132-713) (human) (UniProt P42224); assay: cell-based or functional assay
# [2] = molecular target: tyrosine-phosphorylated human Stat1α (human) (UniProt P42224); assay: cell-based or functional assay
# [3] = molecular target: nonphosphorylated human Stat1α (human) (UniProt P42224); assay: cell-based or functional assay
# [4] = molecular target: the molecule itself; assay: dimerization in solution, method not given
# [5] = molecular target: T1, Stat1tc (Stat1 132-713, Tyr701-phosphorylated, NEM-alkylated) (Homo sapiens, UniProt P42224 SEQ:1-582); assay: EMSA; dimer and two-dimer complexes both displaced in <1 min; no stabilisation (lacks residues 1-131); settings: tags: none; E. coli; initiator Met absent; phosphorylated in vitro by EGF-receptor kinase; chain copies: 2 (stated, homodimer); label: 32P (Klenow fill-in); protruding 5'-TCC, filled in; two parallel sites
# T1 chain: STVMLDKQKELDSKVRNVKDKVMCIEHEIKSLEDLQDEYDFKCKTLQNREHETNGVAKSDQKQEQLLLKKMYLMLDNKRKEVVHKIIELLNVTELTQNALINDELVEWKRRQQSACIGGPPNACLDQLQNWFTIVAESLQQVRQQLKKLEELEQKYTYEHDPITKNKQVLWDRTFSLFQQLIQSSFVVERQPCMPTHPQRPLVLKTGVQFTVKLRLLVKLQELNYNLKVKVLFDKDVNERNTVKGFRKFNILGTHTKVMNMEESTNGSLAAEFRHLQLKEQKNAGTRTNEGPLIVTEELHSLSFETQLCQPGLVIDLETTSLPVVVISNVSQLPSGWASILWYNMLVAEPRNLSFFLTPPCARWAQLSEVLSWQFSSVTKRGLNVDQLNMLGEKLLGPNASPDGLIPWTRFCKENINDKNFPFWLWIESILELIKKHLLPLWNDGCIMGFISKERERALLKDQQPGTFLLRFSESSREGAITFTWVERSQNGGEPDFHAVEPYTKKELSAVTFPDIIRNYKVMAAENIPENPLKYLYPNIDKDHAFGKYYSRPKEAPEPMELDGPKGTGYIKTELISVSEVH
# Procedure: FIG. 6A. Comparison of the dissociation rates of complexes containing DNA fragments with two consecutive binding sites (2×osWT, 10 bp apart) and Stat1α (right) or Stat1tc (left). 0.5×10⁻⁹ M dimer was prebound with 0.7×10⁻⁹ M radiolabelled DNA for 5 min at room temperature (lanes 1 and 8). After the addition of a 100-fold molar excess of unlabelled DNA at time point zero the reaction was further incubated for the times indicated before aliquots were loaded on a running polyacrylamide gel. At time zero two differently migrating complexes are visible, denoted “(2×(Dimer))” and “Dimer”. Unbound (free) DNA runs at the bottom of the gel.
# Dissociation rate determination. Under the reaction conditions described above, each oligonucleotide (at 2×10⁻⁹ M or otherwise stated) was mixed with 0.55×10⁻⁹ M dimer of purified phosphorylated Stat1 protein. The reaction volume was scaled up to 100 μl. The reaction was incubated for 5-15 min at room temperature and for time zero, an aliquot (10 μl) was removed and loaded directly onto a pre-run polyacrylamide gel (see above). […] Gels were dried, exposed to X-ray film and labelled protein/DNA complexes and unbound labelled DNA were quantitated as described above. The half life was determined from a semi-log plot of the numerical data (shifted radioactivity over shifted radioactivity at time zero versus time). […]
molecule,measurement,setting,value
"tyrosine-phosphorylated Stat1tc, truncated Stat1 (132-713) (from UniProt P42224 132-713)",displacement of dimeric and [2×(dimeric)] complexes on tandem DNA sites by excess unlabelled oligonucleotide,[1],< 1 min
tyrosine-phosphorylated human Stat1α (from UniProt P42224 1-750),displacement of the [2×(dimeric)] complex on tandem DNA sites by excess unlabelled oligonucleotide,[2],> 30 min
EGF-receptor from human carcinoma A431 cells (from UniProt P00533 25-1210),percentage of Stat protein that was phosphorylated,[3],< 75%
B1,binding result,[4],binds
B2,binding result,[5],binds
